{"source": "patent US20240269315A1", "about": "“DRUG CONJUGATE AND USE THEREOF” (priority 2021, published 2024)", "binders": {"B1": {"name": "ADC4 (antibody, human IgG1, kappa, V domains shown)", "VH": "QVQLQQSGSELKKPGASVKVSCKASGYTFTNYGMNWVKQAPGQGLKWMGWINTYTGEPTYTDDFKGRFAFSLDTSVSTAYLQISSLKADDTAVYFCARGGFGSSYWYFDVWGQGTLVTVSS", "VL": "DIQLTQSPSSLSASVGDRVSITCKASQDVSIAVAWYQQKPGKAPKLLIYSASYRYTGVPDRFSGSGSGTDFTLTISSLQPEDFAVYYCQQHYITPLTFGAGTKVEIKR", "modifications": "CB07-Exatecan on cysteine thiols after TCEP reduction; positions not given; DAR (p) 4.2 per antibody"}}, "target": "T1, Trop2 (UniProt P09758 27-323, limits assumed)", "T1 sequence (looked up)": "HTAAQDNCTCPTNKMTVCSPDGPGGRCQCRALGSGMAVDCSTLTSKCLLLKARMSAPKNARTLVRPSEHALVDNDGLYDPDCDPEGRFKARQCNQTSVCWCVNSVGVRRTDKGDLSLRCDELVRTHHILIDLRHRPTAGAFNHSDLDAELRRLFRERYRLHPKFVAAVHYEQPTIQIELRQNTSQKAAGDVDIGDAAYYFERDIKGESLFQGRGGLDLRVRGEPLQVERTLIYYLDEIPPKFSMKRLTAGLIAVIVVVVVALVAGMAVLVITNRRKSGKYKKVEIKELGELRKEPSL", "experiment": "cell-based or functional assay", "data": [{"binder": "B1", "values": [{"measurement": "EC50 (ng/mL), growth inhibition of Trop2 positive MDA-MB-453 cells (CCK-8, 120 h)", "result": 640, "unit": "ng/mL"}, {"measurement": "EC50 (ng/mL), growth inhibition of Trop2 positive MDA-MB-468 cells (CCK-8, 120 h)", "result": 158, "unit": "ng/mL"}, {"measurement": "EC50 (ng/mL), growth inhibition of Trop2 positive MX-1 cells (CCK-8, 120 h)", "result": 233, "unit": "ng/mL"}]}]}
